For one molecule, Kd results are on record in paper PMC10716038, “Talin and kindlin use integrin tail allostery and direct binding to activate integrins” (Nature Structural & Molecular Biology, 2023).

Positions count from the first letter of the chain named. Several values for one entry are separate records, joined by “and”; a condition that tells them apart may be missing. Equal entries are not always repeated. No end group written: not given here.

Holding throughout (conditions): both partners purified
The target in experiment [1] is T1, THD1 K402E (UniProt P26039 1-405, K402E).
T1 construct: talin-1 (TLN1) head domain, residues 1-405, K402E; source: E. coli (DE3) Rosetta 2, purified (IMAC, SEC); not shown: His10-SUMO, N-terminal, cleaved
T1 sequence (P26039 1-405 K402E): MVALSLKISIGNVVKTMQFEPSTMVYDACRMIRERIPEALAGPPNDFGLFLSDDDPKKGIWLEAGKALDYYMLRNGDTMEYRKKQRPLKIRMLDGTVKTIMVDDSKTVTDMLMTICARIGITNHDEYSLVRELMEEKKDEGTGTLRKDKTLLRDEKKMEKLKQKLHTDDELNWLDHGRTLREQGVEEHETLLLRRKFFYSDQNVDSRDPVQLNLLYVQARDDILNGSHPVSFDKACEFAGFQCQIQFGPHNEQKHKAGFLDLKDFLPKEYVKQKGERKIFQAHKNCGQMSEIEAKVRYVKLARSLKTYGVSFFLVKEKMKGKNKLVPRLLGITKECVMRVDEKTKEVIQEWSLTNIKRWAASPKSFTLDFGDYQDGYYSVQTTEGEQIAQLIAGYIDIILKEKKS
As to the kind of experiment: MST; unlabelled protein titrated to 50-200 nM ATTO 488-labelled β-CT peptide, no third protein; 20 mM Tris pH 7.5, 200 mM NaCl, 1 mM TCEP, 0.05% Tween-20; Kd of individual titrations (in S0002 mean and sd, n = 2).

Experiment [2] has as its target T2, KIND2 Y13A (UniProt Q8CIB5 1-680, Y13A).
T2 construct: kindlin-2 (KIND2), recombinant, Y13A; source: E. coli Rosetta, purified (IMAC, SEC); not shown: His10-SUMO, N-terminal, cleaved
T2 sequence (looked up): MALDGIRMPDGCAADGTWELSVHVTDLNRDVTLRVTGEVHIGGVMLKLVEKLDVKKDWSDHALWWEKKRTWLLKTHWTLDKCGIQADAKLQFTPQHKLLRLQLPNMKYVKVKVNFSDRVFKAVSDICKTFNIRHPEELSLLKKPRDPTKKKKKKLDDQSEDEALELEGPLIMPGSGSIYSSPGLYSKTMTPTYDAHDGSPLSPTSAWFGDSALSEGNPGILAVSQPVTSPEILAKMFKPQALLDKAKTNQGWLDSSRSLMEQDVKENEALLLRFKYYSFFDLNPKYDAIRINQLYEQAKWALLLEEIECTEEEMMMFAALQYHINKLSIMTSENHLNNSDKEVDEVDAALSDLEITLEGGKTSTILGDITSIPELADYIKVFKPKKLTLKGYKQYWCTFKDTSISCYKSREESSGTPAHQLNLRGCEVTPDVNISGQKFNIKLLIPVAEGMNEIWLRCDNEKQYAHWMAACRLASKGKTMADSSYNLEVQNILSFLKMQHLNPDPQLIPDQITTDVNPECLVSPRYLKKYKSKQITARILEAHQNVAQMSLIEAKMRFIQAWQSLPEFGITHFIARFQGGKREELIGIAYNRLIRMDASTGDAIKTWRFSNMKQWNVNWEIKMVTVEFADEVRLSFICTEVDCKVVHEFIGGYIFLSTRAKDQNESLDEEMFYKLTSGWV
The experiment is described as above.

The target of experiment [3] is T3, talin-1 head domain (THD1) (UniProt P26039 1-405).
T3 construct: talin-1 (TLN1) head domain (THD), residues 1-405; murine TLN1 cDNA is named only for the cell lines; also called WT; source: E. coli (DE3) Rosetta 2, purified (IMAC, SEC); not shown: His10-SUMO, N-terminal, cleaved
T3 sequence (P26039 1-405): as the sequence (P26039 1-405 K402E) above, with E402K counted along it
As to the kind of experiment: MST; apparent; THD1 titrated to 488–β3-CT in the presence of 30-40 µM KIND2-Y13A; MST buffer.

Experiment [4] deals with T4, talin-2 head domain (THD2) (UniProt Q71LX4 1-408).
T4 construct: talin-2 (TLN2) head domain (THD), residues 1-408; source: E. coli (DE3) Rosetta 2, purified (IMAC, SEC); not shown: His10-SUMO, N-terminal, cleaved
T4 sequence (Q71LX4 1-408): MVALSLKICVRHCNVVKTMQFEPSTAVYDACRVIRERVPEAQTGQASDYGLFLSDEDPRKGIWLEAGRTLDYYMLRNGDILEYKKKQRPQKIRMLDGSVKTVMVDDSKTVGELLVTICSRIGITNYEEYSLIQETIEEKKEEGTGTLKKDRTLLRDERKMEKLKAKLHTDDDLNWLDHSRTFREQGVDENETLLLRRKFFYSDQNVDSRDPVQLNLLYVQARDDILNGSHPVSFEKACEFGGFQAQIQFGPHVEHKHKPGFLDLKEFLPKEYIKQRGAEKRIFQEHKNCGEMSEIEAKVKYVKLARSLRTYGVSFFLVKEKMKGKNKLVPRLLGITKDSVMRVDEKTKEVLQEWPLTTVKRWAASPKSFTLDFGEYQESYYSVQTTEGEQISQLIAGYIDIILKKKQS
As to the kind of experiment: MST; unlabelled protein titrated to 50-200 nM ATTO 488-labelled β-CT peptide, no third protein; 20 mM Tris pH 7.5, 200 mM NaCl, 1 mM TCEP, 0.05% Tween-20; Kd of individual titrations (in S0002 mean and sd, n = 2).

Experiment [5] addresses T5, kindlin-2 (KIND2) (UniProt Q8CIB5 1-680).
T5 construct: kindlin-2 (KIND2), recombinant; with the F1 loop and the PH domain (unlike ΔKIND2); source: E. coli Rosetta, purified (IMAC, SEC); not shown: His10-SUMO, N-terminal, cleaved
T5 sequence (looked up): T2 sequence (looked up) with A13Y
As to the kind of experiment: MST; apparent; KIND2 titrated to 488–β3-CT in the presence of 250-450 µM TLN2-F3; MST buffer.

The target in experiment [6] is T3, talin-1 head domain (THD1). As to the kind of experiment: MST; unlabelled protein titrated to 50-200 nM ATTO 488-labelled β-CT peptide, no third protein; 20 mM Tris pH 7.5, 200 mM NaCl, 1 mM TCEP, 0.05% Tween-20; Kd of individual titrations (in S0002 mean and sd, n = 2).
In experiment [7] the target is T5, kindlin-2 (KIND2). As to the kind of experiment: MST; apparent; KIND2 titrated to 488–β3-CT in the presence of 250–450 µM THD1; MST buffer.
The target in experiment [8] is T3, talin-1 head domain (THD1). As to the kind of experiment: MST; apparent; THD1 titrated to 488–β1-CT or 488–β3-CT in the presence of 300–400 µM β-CT-binding-impaired KIND2 Q614A,W615A (QW/AA); MST buffer.

B1: ATTO 488-labeled integrin β3 cytoplasmic tail (488–β3-CT) (peptide, UniProt O54890 741-787, looked up)
peptide: {ATTO 488}-KLLITIHDRKEFAKFEEERARAKWDTANNPLYKEATSTFTNITYRGT
notes: integrin β3 cytoplasmic tail (β3-CT); source: synthetic peptide (MPIB Core Facility)
As to B1, the Kd in experiment [1] is 37.8 µM and 35.5 µM and 32.5 µM; in experiment [2] it was 9.85 µM and 9.2 µM and 9.18 µM and 7.89 µM; in experiment [3], 283 µM and 241 µM and 188 µM and 159 µM; in experiment [4], 31.7 µM and 32.1 µM and 49.1 µM; in experiment [5] it was 55.8 µM and 30.2 µM and 54.2 µM; in experiment [6], 81.6 µM. The Kd in experiment [7] was 30.7 µM and 85.6 µM and 31.9 µM and 66 µM; in experiment [8] it was 183 µM and 137 µM and 88 µM.
